B1: OR4K15 (parent)
chain: GUUAACGGUCAUAGGCCAUGGAAACUAGGAGCACCAUUUCGCUGCCAGUGAAGAAAUGAACAAAGAAAAUCUGGGCCAGGCAGGCAUCAAAAGAAAUAGUCUUGCGCUCAACCAGAAAGUCUGUAAUCAUUUUAAGGGUA

Variants of: B1
Test: self-cleavage, relative activity (ratio to wild type); higher = more cleavage; in vitro, sequencing; the parent is a self-cleaving ribozyme

First: GUUAACGGUCAUAGGCCAUGGAAACUAGGAGCACCAUUUCGCUGCUAGUGAAGAAAUGAACAAAGAAAAUCUGGGCCAGGCAGGCAUCAAAAGAAAUAGUCUUGCGCUCAGCCAGAAAGUCUGUAAUCAUUUUAAGGGUA [C46U A111G]
Second: GUUAACGGUCAUAGGCCAUGGAAACUAGGAGCACCAUUUCGCUGCUAGUGAAGAAAUGAACAAAGAAAAUCUGGGCCAGGCAGGCAUCAAAAGAAAUAGUCUUGCGCUCAACCAGAAUGUCUGUAAUCAUUUUAAGGGUA [C46U A118U]
The self-cleavage of the first is lower: 0.02 for the first, 0.76 for the second.

Going from GUUAACGGUCAUAGGCCAUGGAAACUAGGAGCACCAUUUCGCUGCUAGUGAAGAAAUGAACAAAGAAAAUCUGAGCCAGGCAGGCAUCAAAAGAAAUAGUCUUGCGCUCAACCAGAAAGUCUGUAAUCAUUUUAAGGGUA [C46U G74A] to GUUAACGGUCAUAGGCCAUGGAAACUAGGAGCACCAUUUCGCUGCAAGUGAAGAAAUGAGCAAAGAAAAUCUGGGCCAGGCAGGCAUCAAAAGAAAUAGUCUUGCGCUCAACCAGAAAGUCUGUAAUCAUUUUAAGGGUA [C46A A60G], the self-cleavage rises from 0.32 to 0.67.

Compared with GUUAACGGUCAUAGGCCAUGGAAACUAGGAGCACCAUUUCGCUGCUGGUGAAGAAAUGAACAAAGAAAAUCUGGGCCAGGCAGGCAUCAAAAGAAAUAGUCUUGCGCUCAACCAGAAAGUCUGUAAUCAUUUUAAGGGUA [C46U A47G], GUUAACGGUCAUAGGCCAUGGAAACUAGGAGCACCAUUUCGCUGCAAGUGAAGAAAUGAACAAAGAAAAUCUGGGCCAGGCAGGCAUCAAAAGAAAUAGUCUUGCGCUCAACCAGGAAGUCUGUAAUCAUUUUAAGGGUA [C46A A116G] is lower in self-cleavage: 0.79 for the first, 0.57 for the second.

Going from GUUAACGGUCAUAGGCCAUGGAAACUAGGAGCACCAUUUCGCUGUCAGUGAAGAAAUGAACAAAGAAAAUCUGGGCCAGGCAGGCAUCAAAAGAGAUAGUCUUGCGCUCAACCAGAAAGUCUGUAAUCAUUUUAAGGGUA [C45U A95G] to GUUAACGGUCAUAGGCCAUGGAAACUAGGAGCACCAUUUCGCUGCUAGUGAAGAAAUGAACAAAGAAAAUCUGGGCCAGGCAGGCAUCUAAAGAAAUAGUCUUGCGCUCAACCAGAAAGUCUGUAAUCAUUUUAAGGGUA [C46U A89U], the self-cleavage falls from 1.99 to 1.71.

First: GUUAACGGUCAUAGGCCAUGGAAACUAGGAGCACCAUUUCGCUGCUAGUGAAGAAAUGAACAAAGAAAAUCUGGGCCAGGCAGGCAUCAAAAGAAAUGGUCUUGCGCUCAACCAGAAAGUCUGUAAUCAUUUUAAGGGUA [C46U A98G]
Second: GUUAACGGUCAUAGGCCAUGGAAACUAGGAGCACCAUUUCGCUGUCAGUGAAGAAAUGAACAAAGAAAAUCUGGGCCAGGCAGGCAUCAAAAGAAAUAGUCUUGCGCUCAACCAGAAAGUCUGUAAUCAUUAUAAGGGUA [C45U U132A]
The self-cleavage of the first is lower: 0.74 for the first, 1.05 for the second.

Going from GUUAACGGUCAUAGGCCAUGGAAACUAGGAGCACCAUUUCGCUGUCAGUGAAGAAAUGAACAAAGAAAAUCUGGGCCAGGCAGGCAUCAAAAGAAAUAGUCUUGCGCUCAACCAGAAAGUCUGUAAUCAUUCUAAGGGUA [C45U U132C] to GUUAACGGUCAUAGGCCAUGGAAACUAGGAGCACCAUUUCGCUGCUAGUGAGGAAAUGAACAAAGAAAAUCUGGGCCAGGCAGGCAUCAAAAGAAAUAGUCUUGCGCUCAACCAGAAAGUCUGUAAUCAUUUUAAGGGUA [C46U A52G], the self-cleavage rises from 0.61 to 1.09.

Going from GUUAACGGUCAUAGGCCAUGGAAACUAGGAGCACCAUUUCGCUGCUAGUGAAGAAAUGAACAAAGAAAAUCAGGGCCAGGCAGGCAUCAAAAGAAAUAGUCUUGCGCUCAACCAGAAAGUCUGUAAUCAUUUUAAGGGUA [C46U U72A] to GUUAACGGUCAUAGGCCAUGGAAACUAGGAGCACCAUUUCGCUGCUAGUGAAGAAAUGAACAAAGAAAAUCUGGGCCAGGCAGGCAUCAAAAGAAAUAGUCUUGCGCUCAACAAGAAAGUCUGUAAUCAUUUUAAGGGUA [C46U C113A], the self-cleavage falls from 0.14 to 0.01.

First: GUUAACGGUCAUAGGCCAUGGAAACUAGGAGCACCAUUUCGCUGUCAGUGAAGAAAUGAACAAAGAAGAUCUGGGCCAGGCAGGCAUCAAAAGAAAUAGUCUUGCGCUCAACCAGAAAGUCUGUAAUCAUUUUAAGGGUA [C45U A68G]
Second: GUUAACGGUCAUAGGCCAUGGAAACUAGGAGCACCAUUUCGCUGCUAGUGAAGAAAUGAACAAAGAGAAUCUGGGCCAGGCAGGCAUCAAAAGAAAUAGUCUUGCGCUCAACCAGAAAGUCUGUAAUCAUUUUAAGGGUA [C46U A67G]
The self-cleavage of the first is higher: 1.96 for the first, 1.56 for the second.

Going from GUUAACGGUCAUAGGCCAUGGAAACUAGGAGCACCAUUUCGCUGCUAGUGGAGAAAUGAACAAAGAAAAUCUGGGCCAGGCAGGCAUCAAAAGAAAUAGUCUUGCGCUCAACCAGAAAGUCUGUAAUCAUUUUAAGGGUA [C46U A51G] to GUUAACGGUCAUAGGCCAUGGAAACUAGGAGCACCAUUUCGCUGCUAGUGAAGAAAUGAACAAAGAAAAUCUGGGCCAGGCAGGCAUCAAAAGAAAUAGUCAUGCGCUCAACCAGAAAGUCUGUAAUCAUUUUAAGGGUA [C46U U102A], the self-cleavage rises from 1.42 to 1.59.

Going from GUUAACGGUCAUAGGCCAUGGAAACUAGGAGCACCAUUUCGCUGCUAGUGAAGAAAUGAACAAAGAAAAUCUGGGCCAGGCAGGCAUCAAAAGAAAUAGUCCUGCGCUCAACCAGAAAGUCUGUAAUCAUUUUAAGGGUA [C46U U102C] to GUUAACGGUCAUAGGCCAUGGAAACUAGGAGCACCAUUUCGCUGCAAGUGAAGAAAUGAACAAAGAAAAUCUGGGCCGGGCAGGCAUCAAAAGAAAUAGUCUUGCGCUCAACCAGAAAGUCUGUAAUCAUUUUAAGGGUA [C46A A78G], the self-cleavage falls from 1.84 to 0.17.

Going from GUUAACGGUCAUAGGCCAUGGAAACUAGGAGCACCAUUUCGCUGUCAGUGAAGAAAUGAACAAAGAAAAUCUGGGCAAGGCAGGCAUCAAAAGAAAUAGUCUUGCGCUCAACCAGAAAGUCUGUAAUCAUUUUAAGGGUA [C45U C77A] to GUUAACGGUCAUAGGCCAUGGAAACUAGGAGCACCAUUUCGCUGCUAGUGAAGAAAUGAACAAAGAAAAUCUGGGCCAGGCGGGCAUCAAAAGAAAUAGUCUUGCGCUCAACCAGAAAGUCUGUAAUCAUUUUAAGGGUA [C46U A82G], the self-cleavage rises from 0.42 to 0.94.

Compared with GUUAACGGUCAUAGGCCAUGGAAACUAGGAGCACCAUUUCGCUGCUAGUGAAGAAAUGAACAAAGAAAAUCUGGGCCAGGCCGGCAUCAAAAGAAAUAGUCUUGCGCUCAACCAGAAAGUCUGUAAUCAUUUUAAGGGUA [C46U A82C], GUUAACGGUCAUAGGCCAUGGAAACUAGGAGCACCAUUUCGCUGCUAGUGAAGAAAUGAACAAAGAAAAUCUGGGCCAGGCUGGCAUCAAAAGAAAUAGUCUUGCGCUCAACCAGAAAGUCUGUAAUCAUUUUAAGGGUA [C46U A82U] is lower in self-cleavage: 0.27 for the first, 0.14 for the second.

Compared with GUUAACGGUCAUAGGCCAUGGAAACUAGGAGCACCAUUUCGCUGCUAGUGAAGAAAUGAACAAAGAAAAUCUGGGCCAGGCAGGCAUCAAAAGAAAUAGUCUUGCGCUCAACCAGAAAGUCUGUAAUCAUUUUAAGGUUA [C46U G138U], GUUAACGGUCAUAGGCCAUGGAAACUAGGAGCACCAUUUCGCUGCUAGUGAAGAAAUGAACAAAGAAAAUCUGGGCCAGGCAGGCAUCAAAAGAAAUAGUCUCGCGCUCAACCAGAAAGUCUGUAAUCAUUUUAAGGGUA [C46U U103C] is lower in self-cleavage: 1.93 for the first, 1.41 for the second.

First: GUUAACGGUCAUAGGCCAUGGAAACUAGGAGCACCAUUUCGCUGCAAGUGAAGAAAUGAACAAAGAAAAUCUGGGCCAGGCAGGCAUCAAAAGAAAUAGUCUUGCGCUCAAUCAGAAAGUCUGUAAUCAUUUUAAGGGUA [C46A C112U]
Second: GUUAACGGUCAUAGGCCAUGGAAACUAGGAGCACCAUUUCGCUGUCAAUGAAGAAAUGAACAAAGAAAAUCUGGGCCAGGCAGGCAUCAAAAGAAAUAGUCUUGCGCUCAACCAGAAAGUCUGUAAUCAUUUUAAGGGUA [C45U G48A]
The self-cleavage of the first is lower: 0.01 for the first, 1.78 for the second.

Compared with GUUAACGGUCAUAGGCCAUGGAAACUAGGAGCACCAUUUCGCUGUCAGUGAAGAAAUGAACAAAGAAAAUCUGGGCCAGGCAGGCAUCAAAAGAAAUAGUCUUGCGCUCAACCAGAAAGUCUGUAACCAUUUUAAGGGUA [C45U U127C], GUUAACGGUCAUAGGCCAUGGAAACUAGGAGCACCAUUUCGCUGCAAGUGAAGAAGUGAACAAAGAAAAUCUGGGCCAGGCAGGCAUCAAAAGAAAUAGUCUUGCGCUCAACCAGAAAGUCUGUAAUCAUUUUAAGGGUA [C46A A56G] is higher in self-cleavage: 0.56 for the first, 1.81 for the second.

Compared with GUUAACGGUCAUAGGCCAUGGAAACUAGGAGCACCAUUUCGCUGCAAGUGAAGAAAUGAACAAAGAAAAUCUGGGCCAGGCAGGCAUCAAAAGAAAUAGUCUUGCGCUCAACCAGAAAGUCUGUAAUCAUUUUGAGGGUA [C46A A134G], GUUAACGGUCAUAGGCCAUGGAAACUAGGAGCACCAUUUCGCUGCAAGUGAAGAAAUGAACAAAGAAAAUCUGGGCCAGGCAGGCAUCAAAAGAAAUAGUCUUGCGCUCUACCAGAAAGUCUGUAAUCAUUUUAAGGGUA [C46A A110U] is higher in self-cleavage: 1.14 for the first, 1.53 for the second.

Compared with GUUAACGGUCAUAGGCCAUGGAAACUAGGAGCACCAUUUCGCUGCUAGUGAAGAAAUGAACAAAGAAAAUCUGGGCCAGGCAGGCAUCAAAAGAAAUAGCCUUGCGCUCAACCAGAAAGUCUGUAAUCAUUUUAAGGGUA [C46U U100C], GUUAACGGUCAUAGGCCAUGGAAACUAGGAGCACCAUUUCGCUGUCAGUGAAGAAAUGAACAAAGAAAAUCUGGGCCAGGCAGGCAUCAAAAGAAUUAGUCUUGCGCUCAACCAGAAAGUCUGUAAUCAUUUUAAGGGUA [C45U A96U] is lower in self-cleavage: 2.37 for the first, 1.55 for the second.

First: GUUAACGGUCAUAGGCCAUGGAAACUAGGAGCACCAUUUCGCUGCUAGUGAAGAAAUGAACAAAGAAAAUCUGGGCCAGGCAGGCAUCAAAAGAAGUAGUCUUGCGCUCAACCAGAAAGUCUGUAAUCAUUUUAAGGGUA [C46U A96G]
Second: GUUAACGGUCAUAGGCCAUGGAAACUAGGAGCACCAUUUCGCUGUCAGUGAAGAAAUGAACAAAGAAAAUCUGGGCCAGGCGGGCAUCAAAAGAAAUAGUCUUGCGCUCAACCAGAAAGUCUGUAAUCAUUUUAAGGGUA [C45U A82G]
The self-cleavage of the first is higher: 2.13 for the first, 0.27 for the second.

Going from GUUAACGGUCAUAGGCCAUGGAAACUAGGAGCACCAUUUCGCUGUCAGUGAAGAAAUGAACAAAGAAAACCUGGGCCAGGCAGGCAUCAAAAGAAAUAGUCUUGCGCUCAACCAGAAAGUCUGUAAUCAUUUUAAGGGUA [C45U U70C] to GUUAACGGUCAUAGGCCAUGGAAACUAGGAGCACCAUUUCGCUGUCAGUGAAGAAAUGAACAAAGAAAAUCUGGGCCUGGCAGGCAUCAAAAGAAAUAGUCUUGCGCUCAACCAGAAAGUCUGUAAUCAUUUUAAGGGUA [C45U A78U], the self-cleavage falls from 0.82 to 0.33.

Going from GUUAACGGUCAUAGGCCAUGGAAACUAGGAGCACCAUUUCGCUGCAAGUGAAGAAAUGAACAAAGAAAAUCUGGGCCAGGCAGGCAUCAAAAGAAAUAGUCUUGCGCUCAACCAGAAAGCCUGUAAUCAUUUUAAGGGUA [C46A U120C] to GUUAACGGUCAUAGGCCAUGGAAACUAGGAGCACCAUUUCGCUGCUAGUGAAGAAAUGAACAAAGAAAAUCUGGGCCAGGCAGACAUCAAAAGAAAUAGUCUUGCGCUCAACCAGAAAGUCUGUAAUCAUUUUAAGGGUA [C46U G84A], the self-cleavage rises from 0.87 to 1.72.

GUUAACGGUCAUAGGCCAUGGAAACUAGGAGCACCAUUUCGCUGCUAGUGAAGAGAUGAACAAAGAAAAUCUGGGCCAGGCAGGCAUCAAAAGAAAUAGUCUUGCGCUCAACCAGAAAGUCUGUAAUCAUUUUAAGGGUA [C46U A55G] showed a self-cleavage of 1.14.
